Columns and labels:
Assay type in all cases: cell-based, rat
[1] = test system: Ventral spinal cord neurons; assay: Neurofilament (NF) assay in ventral spinal cord neuron cultures; settings: CNTF 10 ng/ml, NGF 50 ng/ml at plating; day 7
Procedure: (§1) Sprague-Dawley rats (HSD or Zivic-Miller) were used for all experiments. Pregnant rats (E14) were sacrificed as described in 10.1.1.
Spinal cords were removed aseptically from rat embryos as described in 10.1.2. The cord tissues were minced into small pieces and incubated in 0.1% trypsin (GIBCO) and 0.01% deoxyribonuclease type 1 (Sigma) at 37° C. for 20 minutes. Trypsin solution was then removed, rinsed and replaced with medium consisting of 45% Eagle's minimum essential medium (MEM), 45% Ham's nutrient mixture F12 (F12), 5% fetal calf serum (GIBCO), 5% horse serum (GIBCO) glutamine (2 mM), penicillin G (0.5 U/ml), and streptomycin (0.5 ug/ml). […] Total cell number yielded was determined by hemocytometer counting in the presence of trypan blue. […]
After fixation of the cells in 4% paraformaldehyde at 4° C. for 2 hours, the cultures were then permeabilized and blocked according to the procedures described in Doherty et al. (1984, J. Neurochem. 42:1116-1122). Neurofilament protein was detected using a monoclonal antibody RT97 (Wood and Anderton, 1981, Biosci. Rep. 1:263-268) at a 1:1000 dilution. The reaction product was visualized using O-phenylenediamine (OPD) as a substrate and optical density was measured at 490 nm.

[2] = test system: AchE-containing ventral spinal cord neurons; assay: Count of AchE-containing neurons in ventral spinal cord cultures; settings: CNTF 10 ng/ml at plating; 7 days
Procedure: as §1
Spinal cords were removed aseptically from rat embryos as described in 10.1.2. The cord tissues were minced into small pieces and incubated in 0.1% trypsin (GIBCO) and 0.01% deoxyribonuclease type 1 (Sigma) at 37° C. for 20 minutes. Trypsin solution was then removed, rinsed and replaced with medium consisting of 45% Eagle's minimum essential medium (MEM), 45% Ham's nutrient mixture F12 (F12), 5% fetal calf serum (GIBCO), 5% horse serum (GIBCO) glutamine (2 mM), penicillin G (0.5 U/ml), and streptomycin (0.5 ug/ml). This was then mechanically dissociated twice by gentle trituration through a Pasteur pipet in the same medium, and the supernatants were pooled and filtered through a nylon filter (Nitex, Tetko; 40 um). Total cell number yielded was determined by hemocytometer counting in the presence of trypan blue. Dissociated ventral cells were then plated at a density of approximately 50,000 cells/cm^2 on dishes coated with poly-L-ornithine (10 ug/ml) and laminin (5 ug/ml). Treatments were given on the day of plating, except for delayed addition experiments in which treatments were given on days 2 or 6. Cultures were maintained at 37° C. in 95% air/5% CO2 atmosphere at nearly 100% relative humidity. Culture medium was changed every 3 to 4 days. […]

[3] = test system: metrizamide gradient purified ventral spinal cord motorneurons; assay: CAT activity in metrizamide gradient-purified motorneurons; settings: CNTF 10 ng/ml; purified motorneuron cultures
Procedure: Cultures were harvested by lysing the cells in a 20 mM Tris-HCl (pH 8.6) solution containing 0.1% Triton X-100. Two microliters of the cell lysate was removed and assayed for CAT activity according to the micro-Fonnum procedure (Fonnum, 1975, J. Neurochem. 24:407-409). The final substrate composition consisted of 0.2 mM [1-^14C] Acetyl-CoA (NEN, 54.4 mCi/mmol), 300 mM NaCl, 8 mM choline bromide, 20 mM EDTA, and 0.1 mM neostigmine in 50 mM NaH2PO4 (pH 7.4) buffer. At these enzyme and substrate concentrations, the enzymatic reaction was linear for 90-120 minutes. The specificity of the induction for CAT was tested by the addition of a specific inhibitor of CAT activity, N-hydroxyethyl-4-(1-napthylvinyl) pyridium (HNP), during the assay (White and Cavallito, 1970, J. Neurochem. 17:1579-1589).
The fractionation procedure (Dohrman et al., 1986, Dev. Biol. 118:209-221) was a modification of the method described by Schnaar and Schaffner (1981, J. Neurosci. 1:204-207). Metrizamide was dissolved in F12:MEM(1:1) medium, and a step gradient consisting of 3 ml 17% metrizamide, 3 ml 12% metrizamide and 3 ml 8% metrizamide was prepared. The following steps were all carried out at 4° C. The ventral horn cell suspension (2.5 ml) obtained as described previously was layered over the step gradient, the tube was centrifuged at 2500×g for 20 minutes using a swing-out rotor. […]

B1: CNTF: ciliary neurotrophic factor; recombinant rat CNTF in Sections 10, 15, 17, purified rat sciatic nerve CNTF in Section 11; see endpoint conditions (protein, UniProt P20294 1-200, looked up)
Ciliary neurotrophic factor: MAFAEQTPLTLHRRDLCSRSIWLARKIRSDLTALMESYVKHQGLNKNINLDSVDGVPVASTDRWSEMTEAERLQENLQAYRTFQGMLTKLLEDQRVHFTPTEGDFHQAIHTLMLQVSAFAYQLEELMVLLEQKIPENEADGMPATVGDGGLFEKKLWGLKVLQELSQWTVRSIHDLRVISSHQMGISALESHYGAKDKQM
increase in NF content versus untreated controls [1]: 2.0 fold
increase in AchE-positive neurons versus untreated controls [2]: 2.5 fold
increase in CAT activity versus untreated cultures [3]: 10 fold

Source: patent publication US6602687B1, “DNA encoding human ciliary neurotrophic factor and method for producing the protein encoded thereby” (Regeneron Pharmaceuticals, Inc., priority 1989, dated 2003)
